Here are results for four substances from paper PMC4618406.

A short description of data set [1]: TEM of fibers from mixtures. Particulars: glycan gained; control: unmodified α-synuclein, 50 μM.
A short description of data set [2]: ThT fluorescence of gT72/unmodified mixtures, 50 μM total. Particulars: glycan gained, control: unmodified α-synuclein.

“α-synuclein: 10-50% α-synuclein(gT72) mixtures”: in data set [1], the structure_or_conformation entry was “no change”.

α-synuclein: 25% α-synuclein(gT72): the “other: fibril aggregation” value in data set [2] is “decreases”.

As to α-synuclein: 10% α-synuclein(gT72), the “other: fibril aggregation” value in data set [2] is recorded as “decreases”.

For α-synuclein: 50% α-synuclein(gT72), the “other: fibril aggregation” value in data set [2] is on record as “decreases”.
